Patent US20260209352A1 (Adimab, published 2026)
Changes are numbered by the printed parent chain. Blank lines part the entries; values can stand above or below the binder they belong to.

Assays:
[1] = target: Human CD3εδ-Fc (human) (UniProt P04234); experiment: KD of scFv-Fc or IgG on human CD3εδ-Fc; instrument not given
[2] = target: T1, Human CD3 on Human CD3+ Jurkat cells (human, UniProt P07766 23-207); experiment: cell binding hCD3, fold over background
T1 construct: whole, on cells; CD3 complex on cells; also called hCD3

[3] = target: Cyno CD3εδ-Fc (cynomolgus) (UniProt Q95LI8); experiment: KD of scFv-Fc or IgG on cyno CD3εδ-Fc; instrument not given
[4] = target: T2, Cynomolgus CD3 on Cyno CD3+ Jurkat cells (cynomolgus, UniProt Q95LI5 22-198); experiment: cell binding cCD3, fold over background
T2 construct: whole, on cells; CD3 on cells; also called cCD3
T2 sequence (Q95LI5 22-198): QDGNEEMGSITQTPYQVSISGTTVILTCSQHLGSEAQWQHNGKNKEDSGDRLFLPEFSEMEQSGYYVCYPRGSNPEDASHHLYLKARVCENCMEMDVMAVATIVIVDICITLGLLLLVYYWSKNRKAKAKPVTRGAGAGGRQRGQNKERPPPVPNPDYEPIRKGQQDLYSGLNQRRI

T1 sequence (P07766 23-207): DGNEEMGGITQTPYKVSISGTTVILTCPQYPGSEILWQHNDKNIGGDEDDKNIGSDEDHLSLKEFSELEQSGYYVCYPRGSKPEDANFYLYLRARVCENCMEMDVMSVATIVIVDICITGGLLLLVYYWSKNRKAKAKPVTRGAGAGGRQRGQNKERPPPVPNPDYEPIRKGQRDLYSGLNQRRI
Sequence of Cyno CD3εδ-Fc (cynomolgus) (chain, as listed by the source mutant, chain 1 of 2): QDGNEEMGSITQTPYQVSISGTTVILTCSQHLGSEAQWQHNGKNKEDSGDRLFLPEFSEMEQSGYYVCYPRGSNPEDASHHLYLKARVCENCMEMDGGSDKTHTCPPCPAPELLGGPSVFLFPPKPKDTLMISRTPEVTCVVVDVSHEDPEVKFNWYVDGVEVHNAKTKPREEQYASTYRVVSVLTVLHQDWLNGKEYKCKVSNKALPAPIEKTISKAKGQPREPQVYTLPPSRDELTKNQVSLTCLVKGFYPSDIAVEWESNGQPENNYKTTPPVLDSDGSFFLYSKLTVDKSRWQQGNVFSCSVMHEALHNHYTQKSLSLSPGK
Sequence of Cyno CD3εδ-Fc (cynomolgus) (Q95LI8 22-105, stated change not applied, chain 2 of 2): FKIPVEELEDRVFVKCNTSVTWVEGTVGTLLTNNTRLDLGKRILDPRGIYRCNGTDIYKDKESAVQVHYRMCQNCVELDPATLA
Sequence of Human CD3εδ-Fc (human) (chain, as listed by the source mutant, chain 1 of 2): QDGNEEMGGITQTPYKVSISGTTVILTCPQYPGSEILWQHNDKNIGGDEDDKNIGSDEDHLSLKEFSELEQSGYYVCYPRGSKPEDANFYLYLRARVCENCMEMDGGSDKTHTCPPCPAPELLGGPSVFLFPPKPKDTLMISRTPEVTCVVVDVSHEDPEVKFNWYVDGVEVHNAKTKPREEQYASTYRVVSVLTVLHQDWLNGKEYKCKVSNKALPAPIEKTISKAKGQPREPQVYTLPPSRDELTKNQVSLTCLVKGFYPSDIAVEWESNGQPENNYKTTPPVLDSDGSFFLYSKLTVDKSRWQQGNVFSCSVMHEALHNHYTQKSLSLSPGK
Sequence of Human CD3εδ-Fc (human) (P04234 22-105, stated change not applied, chain 2 of 2): as the sequence (Q95LI8 22-105, stated change not applied, chain 2 of 2) above, with V5I, K15N, V20I, T32S, N33D, N34I, A64T, N74S, L83V counted along it

B1: ADI-45960 (antibody, V domains shown)
VH: QVQLVQSGAEVKKPGASVKVSCKASGFNIKDYYMHWVRQAPGQRLEWIGWIDLENANTVYDAKFQGRVTITRDTSASTAYMELSSLRSEDTAVYYCARDAYGRYFYDVWGQGTLVTVSS
VL: DIVMTQSPDSLAVSLGERATINCKSSQSLLNARTGKNYLAWYQQKPGQPPKLLIYWASTRESGVPDRFSGSGSGTDFTLTISSLQAEDAAVYYCAQSYFRRTFGGGTKVEIK
notes: also called Ab23
Kd [1]: 0.14 nM
Cell Binding hCD3 (FOB) [2]: 63 FOB
Kd [3]: 1.8 nM
Cell Binding cCD3 (FOB) [4]: 58 FOB

B2: ADI-45974 (antibody, V domains shown)
VH: B1 VH with S85N
VL: B1 VL with A89V, A95K
notes: also called Ab10
Kd [1]: 0.19 nM
Cell Binding hCD3 (FOB) [2]: 47 FOB
Kd [3]: 2.1 nM
Cell Binding cCD3 (FOB) [4]: 67 FOB

B7: ADI-45970 (antibody, V domains shown)
VH: B1 VH with I29V
VL: B1 VL with A89V, A95K
notes: also called Ab6
Kd [1]: 0.15 nM
Cell Binding hCD3 (FOB) [2]: 53 FOB
Kd [3]: 1.6 nM
Cell Binding cCD3 (FOB) [4]: 68 FOB

B8: ADI-45981 (antibody, V domains shown)
VH: B1 VH
VL: B1 VL with T59M, G72R, A89V, A95S
notes: also called Ab18
Kd [1]: 0.089 nM
Cell Binding hCD3 (FOB) [2]: 33 FOB
Kd [3]: 1.6 nM
Cell Binding cCD3 (FOB) [4]: 78 FOB

B9: ADI-45969 (antibody, V domains shown)
VH: B1 VH with S84G
VL: B1 VL with A89V
notes: also called Ab5
Kd [1]: 0.06 nM
Cell Binding hCD3 (FOB) [2]: 28 FOB
Kd [3]: 1.5 nM
Cell Binding cCD3 (FOB) [4]: 63 FOB

B10: ADI-45963 (antibody, V domains shown)
VH: B1 VH with S17P
VL: B1 VL with A89V, A95K
notes: also called Ab26
Kd [1]: 0.069 nM
Cell Binding hCD3 (FOB) [2]: 14 FOB
Kd [3]: 2.1 nM
Cell Binding cCD3 (FOB) [4]: 69 FOB

B16: ADI-45979 (antibody, V domains shown)
VH: B1 VH
VL: B1 VL with S28E, A89V, A95K
notes: also called Ab16
Kd [1]: 0.19 nM
Cell Binding hCD3 (FOB) [2]: 54 FOB
Kd [3]: 1.7 nM
Cell Binding cCD3 (FOB) [4]: 72 FOB

B18: ADI-45973 (antibody, V domains shown)
VH: B1 VH with G8E
VL: B1 VL with A89V, A95K
notes: also called Ab9
Kd [1]: 0.16 nM
Cell Binding hCD3 (FOB) [2]: 55 FOB
Kd [3]: 1.8 nM
Cell Binding cCD3 (FOB) [4]: 91 FOB

B19: ADI-45965 (antibody, V domains shown)
VH: B1 VH with T58A
VL: B1 VL with E17G, A89V, A95V
notes: also called Ab28
Kd [1]: 0.065 nM
Cell Binding hCD3 (FOB) [2]: 33 FOB
Kd [3]: 1.4 nM
Cell Binding cCD3 (FOB) [4]: 124 FOB

B20: ADI-45977 (antibody, V domains shown)
VH: B1 VH with F64L, R87G
VL: B1 VL with A89V, A95T
notes: also called Ab14
Kd [1]: 0.091 nM
Cell Binding hCD3 (FOB) [2]: 59 FOB
Kd [3]: 1.1 nM
Cell Binding cCD3 (FOB) [4]: 159 FOB

B22: ADI-45968 (antibody, V domains shown)
VH: B1 VH with T74A
VL: B1 VL with A89V, A95V
notes: also called Ab4
Kd [1]: 0.068 nM
Cell Binding hCD3 (FOB) [2]: 16 FOB
Kd [3]: 1.4 nM
Cell Binding cCD3 (FOB) [4]: 18 FOB

B23: ADI-45971 (antibody, V domains shown)
VH: B1 VH with S17T, M34I
VL: B1 VL with G35R, A89V, A95V
notes: also called Ab7
Kd [1]: 0.11 nM
Cell Binding hCD3 (FOB) [2]: 21 FOB
Kd [3]: 1.9 nM
Cell Binding cCD3 (FOB) [4]: 20 FOB

Now from value to binder:

Kd [1]: 0.076 nM
Cell Binding hCD3 (FOB) [2]: 40 FOB
Kd [3]: 1.4 nM
Cell Binding cCD3 (FOB) [4]: 59 FOB
B3: ADI-45967 (antibody, V domains shown)
VH: B1 VH with T71A, A79V
VL: B1 VL with T20I, A89V, A95T
notes: also called Ab3

Kd [1]: 0.23 nM
Cell Binding hCD3 (FOB) [2]: 24 FOB
Kd [3]: 2 nM
Cell Binding cCD3 (FOB) [4]: 101 FOB
B4: ADI-45983 (antibody, V domains shown)
VH: B1 VH with S77G
VL: B1 VL with G35M, W56A, A89V
notes: also called Ab20

Kd [1]: 0.08 nM
Cell Binding hCD3 (FOB) [2]: 8 FOB
Kd [3]: 1.2 nM
Cell Binding cCD3 (FOB) [4]: 85 FOB
B5: ADI-45980 (antibody, V domains shown)
VH: B1 VH with S84N
VL: B1 VL with S58F, A89V, A95T
notes: also called Ab17

Kd [1]: 0.074 nM
Cell Binding hCD3 (FOB) [2]: 25 FOB
Kd [3]: 1.2 nM
Cell Binding cCD3 (FOB) [4]: 37 FOB
B6: ADI-45978 (antibody, V domains shown)
VH: B1 VH with I48L
VL: B1 VL with T59A, A89V, A95T
notes: also called Ab15

Kd [1]: 0.23 nM
Cell Binding hCD3 (FOB) [2]: 18 FOB
Kd [3]: 3 nM
Cell Binding cCD3 (FOB) [4]: 30 FOB
B11: ADI-45961 (antibody, V domains shown)
VH: B1 VH
VL: B1 VL with G35R, K36R, A57G, A89V, A95K
notes: also called Ab24

Kd [1]: 0.081 nM
Cell Binding hCD3 (FOB) [2]: 32 FOB
Kd [3]: 1.4 nM
Cell Binding cCD3 (FOB) [4]: 45 FOB
B12: ADI-45972 (antibody, V domains shown)
VH: B1 VH with K13R
VL: B1 VL with A89V, A95V
notes: also called Ab8

Kd [1]: 0.12 nM
Cell Binding hCD3 (FOB) [2]: 24 FOB
Kd [3]: 1.4 nM
Cell Binding cCD3 (FOB) [4]: 31 FOB
B13: ADI-45982 (antibody, V domains shown)
VH: B1 VH
VL: B1 VL with S62N, A89V, A95T
notes: also called Ab19

Kd [1]: 0.12 nM
Cell Binding hCD3 (FOB) [2]: 45 FOB
Kd [3]: 1.8 nM
Cell Binding cCD3 (FOB) [4]: 109 FOB
B14: ADI-45976 (antibody, V domains shown)
VH: B1 VH with A97V
VL: B1 VL with A89V, A95V
notes: also called Ab12

Kd [1]: 0.14 nM
Cell Binding hCD3 (FOB) [2]: 18 FOB
Kd [3]: 1.4 nM
Cell Binding cCD3 (FOB) [4]: 46 FOB
B15: ADI-45962 (antibody, V domains shown)
VH: B1 VH with K12E, K13E
VL: B1 VL with A89V, A95V
notes: also called Ab25

Kd [1]: 0.061 nM
Cell Binding hCD3 (FOB) [2]: 14 FOB
Kd [3]: 1.2 nM
Cell Binding cCD3 (FOB) [4]: 27 FOB
B17: ADI-45966 (antibody, V domains shown)
VH: B1 VH with T69A
VL: B1 VL with A89V, A95T
notes: also called Ab29

Kd [1]: 0.097 nM
Cell Binding hCD3 (FOB) [2]: 56 FOB
Kd [3]: 2 nM
Cell Binding cCD3 (FOB) [4]: 63 FOB
B21: ADI-45964 (antibody, V domains shown)
VH: B1 VH with M34I
VL: B1 VL with A89V
notes: also called Ab27

Kd [1]: 0.095 nM
Cell Binding hCD3 (FOB) [2]: 88 FOB
Kd [3]: 1.3 nM
Cell Binding cCD3 (FOB) [4]: 92 FOB
B24: ADI-45984 (antibody, V domains shown)
VH: B1 VH
VL: B1 VL with G35R, A89V, A95V
notes: also called Ab21
